Target: T1, streptavidin (Streptomyces avidinii, UniProt P22629 37-163)
T1 construct: also called streptavidin-coated beads; streptavidin-coated magnetic beads
Assay: direct binding assay with plate-immobilized streptavidin and HRP-conjugated anti-FLAG antibody
Protocol: For the Keap1 binding assay, Keap1 was immobilized on microtiter plates by incubating 100 μL of a 4 μM protein solution in PBS buffer overnight at 4° C., followed by washing (3×150 μL of PBS with 0.5% Tween-20) and blocking with 0.5% bovine serum albumin in PBS for 1.5 h at room temperature. After washing, each well was incubated with 100 μL of purified FLAG-tagged peptide at varying concentrations for 1 hour at room temperature. After washing three times with wash buffer, each well was incubated with 100 μL of 1:2500 dilution of HRP-conjugate mouse anti-FLAG polyclonal antibody (Sigma-Aldrich) for 1 hour at room temperature. After three washing step with wash buffer, 100 μL of 2.2 mM o-phenylenediamine dihydrochloride, 4.2 mM urea hydrogen peroxide, 100 mM dibasic sodium phosphate, and 50 mM sodium citrate, pH 5.0, were added to each well, followed by measurement of the absorbance at 450 nm after 10-20 min using a Tecan Infinite 1000 plate reader. Equilibrium dissociation constants (KD) were determined by fitting the dose-response curves to a 1:1 binding isotherm equation via nonlinear regression using SigmaPlot. Mean values and standard deviations were calculated from experiments performed in triplicate.

T1 sequence (P22629 37-163, tags left off): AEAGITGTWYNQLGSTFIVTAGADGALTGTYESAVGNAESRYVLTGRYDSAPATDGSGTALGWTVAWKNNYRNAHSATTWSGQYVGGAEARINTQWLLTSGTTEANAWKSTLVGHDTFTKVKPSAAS

B1: CBD alone (other)
chain: MKIEEGKLTNPGVSAWQVNTAYTAGQLVTYNGKTYKCLQPHTSLAGWEPSNVPALWQLQNNGNNGLELRHG
**Q.** Does B1 bind?
**A.** Result: no binding

From patent publication US20200299675A1 (UNIVERSITY OF ROCHESTER, published 2020)
